Data set [1] deals with T1, peptide AQYPQEVITTVRG (PhoP).
T1 chain: AQYPQEVITTVRG

The target of data set [2] is T2, peptide KWQMMLSKSMRR (CaiF).
T2 chain: KWQMMLSKSMRR

In data set [3] the target is T3, peptide ELNREQKWQMMLSKSMRR (CaiF).
T3 chain: ELNREQKWQMMLSKSMRR

Data set [4] concerns the target T4, peptide KTPLAVLQSTLRS (PhoQ).
T4 chain: KTPLAVLQSTLRS

Data set [5] concerns the target T5, peptide ATVAKCVEALKERFQASLRD (PheT).
T5 chain: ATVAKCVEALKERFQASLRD

For data set [6], the target named is T6, peptide NTHRGMGYSLRGL (CreB).
T6 chain: NTHRGMGYSLRGL

For data set [7], the target named is T7, peptide KLLRLFFPLSLRV (PhoQ).
T7 chain: KLLRLFFPLSLRV

Data set [8] addresses T8, peptide VAKCVEALKERFQASLRD (PheT).
T8 chain: VAKCVEALKERFQASLRD

Data set [9] has as its target T9, peptide LTHSLKTPLAVLQSTLRS (PhoQ).
T9 chain: LTHSLKTPLAVLQSTLRS

The target of data set [10] is T10, peptide LTELNREQKWQMMLSKSMRR (CaiF).
T10 chain: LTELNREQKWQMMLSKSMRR

For data set [11], the target named is T11, peptide KHVQALDLSMRFR (Nicotinate-nucleotide diphosphorylase).
T11 chain: KHVQALDLSMRFR

The target in data set [12] is T12, peptide LLRLFFPLSLRV (PhoQ).
T12 chain: LLRLFFPLSLRV

Data set [13] addresses T13, peptide VEALKERFQASLRD (Phenylalanyl-tRNA synthetase).
T13 chain: VEALKERFQASLRD

For data set [14], the target named is T14, peptide RLLPAVSEATIRRL
T14 chain: RLLPAVSEATIRRL

The target of data set [15] is T15, peptide KTPLAVLQSTLRSLR (PhoQ).
T15 chain: KTPLAVLQSTLRSLR

The target of data set [16] is T16, octameric peptide AVSEATIR
T16 chain: AVSEATIR

Data set [17] has as its target T17, peptide LAVLQSTLRSLRS (PhoQ).
T17 chain: LAVLQSTLRSLRS

B1: Recombinant YcfD, N-terminally hexa-His tagged (E. coli) (protein)
chain: MEYQLTLNWPDFLERHWQKRPVVLKRGFNNFIDPISPDELAGLAMESEVDSRLVSHQDGKWQVSHGPFESYDHLGETNWSLLVQAVNHWHEPTAALMRPFRELPDWRIDDLMISFSVPGGGVGPHLDQYDVFIIQGTGRRRWRVGEKLQMKQHCPHPDLLQVDPFEAIIDEELEPGDILYIPPGFPHEGYALENAMNYSVGFRAPNTRELISGFADYVLQRELGGNYYSDPDVPPRAHPADVLPQEMDKLREMMLELINQPEHFKQWFGEFISQSRHELDIAPPEPPYQPDEIYDALKQGEVLVRLGGLRVLRIGDDVYANGEKIDSPHRPALDALASNIALTAENFGDALEDPSFLAMLAALVNSGYWFFEG
Take B1: the “% hydroxylation (+16 Da)” value is 60% in data set [1]; 30% in data set [2]; 40% in data set [3]; 95% in data set [4]; 40% in [5]; 30% in data set [6]. Besides, the “% hydroxylation (+16 Da)” value in [7] is given as 60%; in data set [8], 50%; in [9], 90%; in data set [10], 40%; in data set [11], 30%; in [12] it was 50%. In addition, the “% hydroxylation (+16 Da)” value in [13] was found to be 40%; in [15] it was 40%; in data set [17], 60%. For the same protein, in data set [14], the “+16Da mass shift (hydroxylation, MALDI-TOF MS)” value was “gave a +16Da mass shift upon incubation with YcfD in an Fe(II) and 2OG dependent manner”. In addition, the “position of hydroxylation (2D-NMR after incubation with YcfD)” value in data set [16] is recorded as 2D-NMR analyses revealed the position of hydroxylation as at C-3 of the hydroxylated arginine-residue.
